Assay results: patent US8586056
Read-outs that look alike come from different tables or passages of the source.

Legend:
[1] = molecular target: HIV-1 clade C 16055 gp120-Histag, EF117268_gp120 (HIV-1 clade C, isolate 16055); test: Octet (biolayer interferometry)
[2] = molecular target: HIV-1 clade C 16055 gp120-Histag, EF117268_gp120 (HIV-1 clade C, isolate 16055); test: Octet
[3] = molecular target: Env of the 16055 virus (HIV-1 clade C, isolate 16055); test: ELISA; same curves as panel 16055-2 of FIG. 3A
[4] = molecular target: DU422 (HIV-1)
[5] = molecular target: Zm135 (HIV-1)
[6] = molecular target: 25710 (EF117271) (HIV-1)
[7] = molecular target: SF162 (HIV-1)
[8] = molecular target: JRCSF
[9] = molecular target: Bal (HIV-1)
[10] = molecular target: PVO (HIV-1)
[11] = molecular target: CAAN (AY835452) (HIV-1)
[12] = molecular target: 6535 (AY835438) (HIV-1)
[13] = molecular target: 0013095 (EF117267) (HIV-1)
[14] = molecular target: Env of the 16055 virus (HIV-1 clade C, isolate 16055)
[15] = molecular target: YU2
[16] = molecular target: HIV-1 Env 16936 (HIV-1, isolate 16936)
[17] = molecular target: 25925 (EF117273) (HIV-1)
[18] = molecular target: JRFL (HIV-1)
[19] = molecular target: Zm109F (AY424138) (HIV-1)
[20] = molecular target: Du172 (HIV-1)
[21] = molecular target: ZM214 (HIV-1)
[22] = molecular target: Zm197 (HIV-1)
[23] = molecular target: QH0692 (HIV-1)
[24] = molecular target: CAP45 (HIV-1)
[25] = molecular target: AC10 (HIV-1)
[26] = molecular target: 0013095 gp140; test: ELISA on recombinant gp140
[27] = molecular target: HIV-1 clade C 16055 gp140-Histag, EF117268_gp140 (HIV-1 clade C, isolate 16055); test: ELISA on recombinant gp140
[28] = molecular target: 16055 gp140 trimer with c-terminus trimerization domain GCN4 (HIV-1 clade C, isolate 16055); test: ELISA on recombinant gp140
[29] = molecular target: HIV-1 clade C 16055 gp140-Histag, EF117268_gp140 (HIV-1 clade C, isolate 16055); test: ELISA on recombinant gp140; remark: listed apart in the source
[30] = molecular target: JRCSF; test: shed gp120 capture ELISA
[31] = molecular target: Env of the 16055 virus (HIV-1 clade C, isolate 16055); test: shed gp120 capture ELISA
[32] = molecular target: 16936V1-3-55 gp160 full length Env (HIV-1 (16936 with 16055 V1-3 loops))
[33] = molecular target: HIV-1 Env 16936 (HIV-1, isolate 16936); remark: listed apart in the source
[34] = molecular target: DU422 (HIV-1); remark: listed apart in the source
[35] = molecular target: Zm135 (HIV-1); remark: listed apart in the source
[36] = molecular target: JRCSF; remark: listed apart in the source
[37] = molecular target: WIT04160 (HIV-1)
[38] = molecular target: MulV
[39] = molecular target: UG037 (HIV-1)
[40] = molecular target: Env of the 16055 virus (HIV-1 clade C, isolate 16055); remark: listed apart in the source
[41] = molecular target: YU2; remark: listed apart in the source
[42] = molecular target: RW020 (HIV-1)
[43] = molecular target: Du172 (HIV-1); remark: listed apart in the source
[44] = molecular target: Zm197 (HIV-1); remark: listed apart in the source
[45] = molecular target: REJ0451 (HIV-1)
[46] = molecular target: CAP45 (HIV-1); remark: listed apart in the source
[47] = molecular target: Q842 (HIV-1)
[48] = molecular target: 16936-16055V123loop (HIV-1 (16936 backbone with 16055 V1, V2 and V3 loops)); test: ELISA
[49] = molecular target: BG505_gp120 (HIV-1 clade A, BG505); test: ELISA on BG505 gp120
[50] = molecular target: Env of the 16055 virus (HIV-1 clade C, isolate 16055); remark: listed apart in the source
[51] = molecular target: SF162 (HIV-1); remark: listed apart in the source
[52] = molecular target: JRFL (HIV-1); remark: listed apart in the source
[53] = molecular target: ZM214 (HIV-1); remark: listed apart in the source
[54] = molecular target: QH0692 (HIV-1); remark: listed apart in the source

VRC01 (antibody)
Kd [1]: 61 nM
koff [2]: 0.000294 s⁻¹
kon [2]: 4780 M⁻¹ s⁻¹

b6 (antibody)
Kd [2]: 7.7 nM
koff [2]: 8.66e-05 s⁻¹
kon [2]: 11000 M⁻¹ s⁻¹

PG9 (antibody)
EC50 (read off the curve) [3]: 0.3 µg/mL
neutralization IC50 [4]: 1.64 µg/mL
neutralization IC50 [5]: 17.6 µg/mL
neutralization IC50 [6]: < 0.01 µg/mL
neutralization IC50 [7]: > 25 µg/mL
neutralization IC50 [8]: < 0.01 µg/mL
neutralization IC50 [9]: < 0.01 µg/mL
neutralization IC50 [10]: 9.76 µg/mL
neutralization IC50 [11]: 11.9 µg/mL
neutralization IC50 [12]: 0.6 µg/mL
neutralization IC50 [13]: < 0.01 µg/mL
neutralization IC50 [14]: < 0.01 µg/mL
neutralization IC50 [15]: < 0.01 µg/mL
neutralization IC50 (virus printed '6936') [16]: > 25 µg/mL
neutralization IC50 [17]: 0.15 µg/mL
neutralization IC50 [18]: > 25 µg/mL
neutralization IC50 [19]: 0.46 µg/mL
neutralization IC50 [20]: 0.49 µg/mL
neutralization IC50 [21]: > 25 µg/mL
neutralization IC50 [22]: 0.61 µg/mL
neutralization IC50 [23]: > 25 µg/mL
neutralization IC50 [24]: < 0.01 µg/mL
neutralization IC50 [25]: 0.05 µg/mL
EC50 (read off the curve) [26]: 0.9 µg/mL
EC50 (read off the curve) [27]: 0.1 µg/mL
EC50 (read off the curve) [28]: 0.1 µg/mL
EC50 (read off the curve) [29]: 0.2 µg/mL
EC50 (read off the curve) [30]: 0.3 µg/mL
EC50 (read off the curve) [31]: 0.3 µg/mL
neutralization IC50 [32]: 0.03 µg/mL
neutralization IC50 [33]: > 25 µg/mL
neutralization IC50 [34]: 0.178 µg/mL
neutralization IC50 [35]: > 25 µg/mL
neutralization IC50 [36]: 2 ng/mL
neutralization IC50 [37]: 5 ng/mL
neutralization IC50 [38]: > 25 µg/mL
neutralization IC50 [39]: 0.02 µg/mL
neutralization IC50 [40]: 0.01 µg/mL
neutralization IC50 [41]: 1.73 µg/mL
neutralization IC50 [42]: 0.05 µg/mL
neutralization IC50 [43]: 0.24 µg/mL
neutralization IC50 [44]: 0.287 µg/mL
neutralization IC50 [45]: 1 ng/mL
neutralization IC50 [46]: 3 ng/mL
neutralization IC50 [47]: 0.02 µg/mL
EC50 (read off the curve) [48]: 0.2 µg/mL
EC50 (read off the curve) [49]: 0.04 µg/mL

A32 (antibody)
Kd [2]: 5.2 nM
koff [2]: 8.23e-05 s⁻¹
kon [2]: 15600 M⁻¹ s⁻¹

PG16 (antibody)
neutralization IC50 [4]: 2.34 µg/mL
neutralization IC50 [5]: > 25 µg/mL
neutralization IC50 [6]: < 0.01 µg/mL
neutralization IC50 [7]: > 25 µg/mL
neutralization IC50 [8]: < 0.01 µg/mL
neutralization IC50 [9]: < 0.01 µg/mL
neutralization IC50 [10]: 21.9 µg/mL
neutralization IC50 [11]: 12.9 µg/mL
neutralization IC50 [12]: > 25 µg/mL
neutralization IC50 [13]: < 0.01 µg/mL
neutralization IC50 [15]: < 0.01 µg/mL
neutralization IC50 (virus printed '6936') [16]: > 25 µg/mL
neutralization IC50 [17]: 0.11 µg/mL
neutralization IC50 [18]: > 25 µg/mL
neutralization IC50 [19]: > 25 µg/mL
neutralization IC50 [20]: 0.06 µg/mL
neutralization IC50 [21]: > 25 µg/mL
neutralization IC50 [22]: 1.68 µg/mL
neutralization IC50 [23]: > 25 µg/mL
neutralization IC50 [24]: < 0.01 µg/mL
neutralization IC50 [25]: < 0.01 µg/mL
EC50 (read off the curve) [27]: 0.08 µg/mL
EC50 (read off the curve) [28]: 0.08 µg/mL
EC50 (read off the curve) [29]: 0.1 µg/mL
neutralization IC50 [32]: 0.06 µg/mL
neutralization IC50 [50]: < 0.01 µg/mL
neutralization IC50 [33]: > 25 µg/mL
neutralization IC50 [34]: 0.042 µg/mL
neutralization IC50 [36]: 1 ng/mL
neutralization IC50 [37]: 2 ng/mL
neutralization IC50 [38]: > 25 µg/mL
neutralization IC50 [39]: 0.01 µg/mL
neutralization IC50 [40]: 0.01 µg/mL
neutralization IC50 [41]: 0.114 µg/mL
neutralization IC50 [42]: 0.037 µg/mL
neutralization IC50 [43]: 0.023 µg/mL
neutralization IC50 [44]: 0.765 µg/mL
neutralization IC50 [45]: 4 ng/mL
neutralization IC50 [46]: 2 ng/mL
neutralization IC50 [47]: 0.009 µg/mL
EC50 (read off the curve) [49]: 0.2 µg/mL

4E10 (antibody)
neutralization IC50 [32]: 2.68 µg/mL
neutralization IC50 [50]: 7.02 µg/mL
neutralization IC50 [33]: 3.85 µg/mL

F105 (antibody)
Kd [1]: 200 nM
koff [2]: 0.00169 s⁻¹
kon [2]: 8430 M⁻¹ s⁻¹

b12 (antibody)
Kd [1]: 120 nM
koff [2]: 0.00107 s⁻¹
kon [2]: 8790 M⁻¹ s⁻¹
neutralization IC50 [32]: 20.5 µg/mL
neutralization IC50 [50]: > 25 µg/mL
neutralization IC50 [33]: > 25 µg/mL
neutralization IC50 [34]: 0.464 µg/mL
neutralization IC50 [35]: > 25 µg/mL
neutralization IC50 [51]: 0.07 µg/mL
neutralization IC50 [36]: 96 ng/mL
neutralization IC50 [37]: 8580 ng/mL
neutralization IC50 [38]: > 25 µg/mL
neutralization IC50 [39]: > 25 µg/mL
neutralization IC50 [41]: 2.18 µg/mL
neutralization IC50 [42]: 10 µg/mL
neutralization IC50 [52]: 0.022 µg/mL
neutralization IC50 [43]: 0.3 µg/mL
neutralization IC50 [53]: 13.6 µg/mL
neutralization IC50 [44]: > 25 µg/mL
neutralization IC50 [54]: 0.97 µg/mL
neutralization IC50 [45]: 5920 ng/mL
neutralization IC50 [46]: 370 ng/mL
neutralization IC50 [47]: > 25 µg/mL
EC50 (read off the curve) [49]: 0.03 µg/mL
